From the supplement of paper PMC12764529
± gives the half width of the 95% confidence interval.

Tests used:
[1] = folding stability dG unfold from trypsin proteolysis; higher = more stable
How it was run: (§1)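 Sequencing followed digestion of designed mini-proteins with trypsin and chymotrypsin, each at 11 concentrations in threefold dilutions together with a no-protease condition. The mini-proteins were under 80 residues, had no cysteine, sat in a PA-tagged cDNA display construct, and were kept only if AlphaFold2 dimer inter-PAE was above 15. From the counts, Bayesian fitting gave K50, and unfolding free energy was derived against a sequence-predicted unfolded-state K50 and a shared folded-state K50, per protease or combined.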

[2] = folding stability dG unfold from chymotrypsin proteolysis; higher = more stable
How it was run: as §1

[3] = folding stability dG unfold (combined trypsin and chymotrypsin); higher = more stable
How it was run: as §1

Sequence | folding stability dG unfold [1] [kcal/mol] | folding stability dG unfold [2] [kcal/mol] | folding stability dG unfold [3] [kcal/mol]
SAGGSAGGSGTSTKINILLPVKPGETVKLKVEVNLNSKKVLFYVDVKKNPVGNYLSATFTVTGSAGGSAGGS [r12_136_TrMRF] | 2.75 ± 0.3 | 4.42 ± 0.12 | 3.85 ± 0.23
SAGGSAGPALEIAKALTELYGAEEVTILDVHPDGYVHLHVRAVDYDDGEPVERELDVIFPIAPDDGSAGGSA [r15_646_TrMRF] | 0.164 ± 0.06 | 1.52 ± 0.037 | 1.18 ± 0.11
MIPLTLEYDPEKKVIRLKTPDGKPVIVEAGDKGYRVIIYDPKTGKPTVIPVTEKELLDLAKNPAFNLDLAAS [r1_18_TrMRF] | 1.94 ± 0.025 | 1.23 ± 0.076 | 1.65 ± 0.059
SAGGPRVFRLTYLDPETGEPRELRFSLPVPPAPDFISVYVNVPPELARRIAELLRELYPDKPVLVHRSAGGS [r8_437_TrMRF] | 2 ± 0.036 | 2.971 ± 0.019 | 2.68 ± 0.049
SAGGSAGGSAGKKKKKPKPIVLVIKVKTKEEAEKLAEKLKELGFKVEIVEKKDGYLVIKLSAGGSAGGSAGG [r17_323_TrROS_Hall] | 2.11 ± 0.12 | 3.8 ± 0.15 | 3.39 ± 0.18
SAGGSAGGSAGGFKLPPGKPIEFPIKHGGEPYPVEIWRDPNKLMIHFPGNNQWIPADDIKSAGGSAGGSAGG [r7_37_TrROS] | -0.828 ± 0.45 | -0.589 ± 0.87 | -0.931 ± 0.58
SAGGMTLEDLAGQSIEEALDLIEENGWDEVTITYPGGSKIEIKYNKDGPIEVEWENPDGNKQTFTIPSAGGS [r8_51_TrROS] | 0.644 ± 0.074 | 0.907 ± 0.1 | 0.833 ± 0.083
SAGGSAGGSAGGDPKAKPKKYYLIDLNARLVGVEVDPETGELTVTYELEGATLTLRFEGSAGGSAGGSAGGS [r10_962_TrMRF] | 2.24 ± 0.1 | 2.78 ± 0.045 | 2.65 ± 0.14
SAGGSAGGSAGGSFELVGLVSEFEDENGIPVRVFKAKNPLLGYEFLVVVLPNGEVFFLPSAGGSAGGSAGGS [r10_1123_TrMRF] | 2.8 ± 0.053 | 3.124 ± 0.014 | 2.99 ± 0.089
SAGGSMKPAKKITFTFPDGRKAEIFFYPEEDTIELRIYFPETGTFVEIPVKSPEDLIETLKKLLAESAGGSA [r2_70_TrMRF] | 4.02 ± 0.16 | 3.7 ± 0.14 | 3.75 ± 0.16
SAGGGLTEEQLEEEAREVAERVEKEFAEATGIEPVEILSVEVFPDGTVRITLRFKGKGGLVTYTIPLSAGGS [r16_622_TrMRF] | 3.16 ± 0.096 | 3.58 ± 0.04 | 3.42 ± 0.12
SAGGSAGGSAGGMLFHFEIKDPNSDKEYEVLVEKPPSGKVLVTILKDNKEEVKVLPLELFSAGGSAGGSAGG [r11_952_JUSTAS] | 0.109 ± 0.17 | -0.393 ± 0.42 | -0.29 ± 0.31
SAGGELIEKAIEEALENGEEVEIEVVLRDENGELYRIRIRVRRERLPDGEVKTEIEIEIERFPLPEESAGGS [r16_323_TrROS_Hall] | 4.28 ± 0.2 | 4.66 ± 0.11 | 4.6 ± 0.12
SADEALRRLLENMTPEELAALLAPAVPGPPVEVLVVPREVLPEVLRRLREEFDVEFEEEGDFVRIVVRGSAG [r14_7_TrMRF] | 2.28 ± 0.029 | 2.915 ± 0.016 | 2.73 ± 0.04
SAGGSIPPGARVETLEVVTSSSSDGTVTTTTLTRVTSPEDSVSERTRTTTDPVVPPPATPTNPVSLASAGGS [r8_90_JUSTAS] | -0.0164 ± 0.079 | 0.804 ± 0.06 | 0.507 ± 0.053
SAGMKIKIIKLDKNLEELSEEELKKLLEELAKKGLVEKKKDGKKVIPLTVIDKKTKKTYTFYIEIEKPPSAG [r5_243_TrROS_Hall] | 1.36 ± 0.041 | 2.72 ± 0.057 | 2.33 ± 0.17
SAGGAPSTFTSTSPEGETTVTTTTTYYPETGTTTTTTTTTNPATGTSTTTTTTTPVAPPQPPLLEAGASAGG [r13_694_JUSTAS] | 0.827 ± 0.056 | 1.08 ± 0.047 | 1.05 ± 0.067
SAGGSAGGSAGGSMELIPTPEDTVTVVETTPVAPTPNGTPVPATVTTTTLPKEEVEAAASAGGSAGGSAGGS [r4_238_JUSTAS] | 2.71 ± 0.057 | 1.53 ± 0.03 | 2.1 ± 0.062
SAGGPISKKKIVTAPVSYDPATGKYTITLTYPDSTYTIPSDLSDLEEALKRAKEKLEKETGIPVETVLGSAG [r5_251_JUSTAS] | 0.576 ± 0.032 | 1 ± 0.11 | 0.918 ± 0.074
SAGNIMVQVEPDPGGTVKVEIMFMIPLPNGWPIMIQIEWEVRVDEDGEPELKMPIEIFFSEEALDKGFSAGG [r19_63_TrROS] | 2.06 ± 0.11 | 1.99 ± 0.029 | 2.09 ± 0.13
SAGGSAGGSPNDMKEVDFPIKFPKEKFKVKIWRHPDDPNRYYIRFPSNGAIFWFDPNGDIEPLSAGGSAGGS [r12_580_TrROS] | 1.01 ± 0.056 | 1.75 ± 0.085 | 1.49 ± 0.1
